Laboratory results reported in US20140348834A1 (published 2014).
Read-outs that look alike come from different tables or passages of the source.

T1: rat IL-17A (rat, UniProt Q61453 18-150, limits assumed)
T1 sequence (looked up): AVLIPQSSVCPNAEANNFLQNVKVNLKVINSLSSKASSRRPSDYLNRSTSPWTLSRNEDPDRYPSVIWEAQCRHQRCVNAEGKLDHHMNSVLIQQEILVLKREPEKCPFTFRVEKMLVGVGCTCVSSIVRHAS

T2: rat IL-17A (rat, UniProt Q61453 18-150, limits assumed)
T2 sequence (looked up): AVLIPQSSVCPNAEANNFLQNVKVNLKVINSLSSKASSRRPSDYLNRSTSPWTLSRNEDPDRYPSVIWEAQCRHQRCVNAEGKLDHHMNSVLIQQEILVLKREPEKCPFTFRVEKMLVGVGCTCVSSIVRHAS


How the values were obtained:
human IL-17A [1] = target: human IL-17A (human, UniProt Q16552 24-155); assay: cell-based or functional assay
Target sequence in this assay (Q16552 24-155): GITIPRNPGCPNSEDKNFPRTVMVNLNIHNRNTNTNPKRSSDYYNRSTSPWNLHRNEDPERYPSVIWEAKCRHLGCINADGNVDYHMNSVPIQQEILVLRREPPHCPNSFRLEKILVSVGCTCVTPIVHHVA

rat IL-17A [2] = target: T1, rat IL-17A; assay: cell-based or functional assay
human IL-17A [3] = target: T3, human IL-17A (human, UniProt Q16552 24-155); assay: cell-based or functional assay; remark: listed apart in the source
T3 sequence (Q16552 24-155 limits assumed): as the sequence (Q16552 24-155) above

human IL-17A/F [4] = target: T4, human IL-17A/F (human, UniProt Q16552 24-155; Q96PD4 31-163); assay: cell-based or functional assay
[5] = target: T5, cynomolgous monkey (cyno) IL-17A (cynomolgus monkey, UniProt A0A2K5TTB0 24-155); assay: cell-based or functional assay
human IL-17A [6] = target: T3, human IL-17A; assay: ELISA, captured antibody, serially diluted biotin-IL-17 (Example 1.5.1)
human IL-17A [7] = target: T3, human IL-17A; assay: cell-based or functional assay; remark: listed apart in the source
human IL-17A/F [8] = target: T4, human IL-17A/F; assay: cell-based or functional assay; remark: listed apart in the source
[9] = target: T5, cynomolgous monkey (cyno) IL-17A; assay: cell-based or functional assay; remark: listed apart in the source
rat IL-17A [10] = target: T2, rat IL-17A; assay: cell-based or functional assay; remark: listed apart in the source

T5 sequence (A0A2K5TTB0 entry or part of it): as the sequence (Q16552 24-155) above, with T3A, P8S, N34S, I77V, N78K, P104R counted along it
T4 sequence (Q16552 24-155 limits assumed, chain 1 of 2): as the sequence (Q16552 24-155) above
T4 sequence (Q96PD4 31-163 limits assumed, chain 2 of 2): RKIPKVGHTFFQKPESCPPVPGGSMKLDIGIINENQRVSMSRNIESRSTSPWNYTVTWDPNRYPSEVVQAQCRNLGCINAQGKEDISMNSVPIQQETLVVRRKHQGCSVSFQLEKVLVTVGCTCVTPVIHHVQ

| Binder | Potency (pM), IL-17-driven IL-6 production in HS27 cells (human IL-17A [1]) | Potency (pM), IL-17 and TNF-alpha-driven IL-6 production in NIH3T3 cells (rat IL-17A [2]) | Potency (nM), IL-17-driven IL-6 production in HS27 cells (human IL-17A [3]) | Potency (nM), IL-17-driven IL-6 production in HS27 cells (human IL-17A/F [4]) | Potency (nM), IL-17-driven IL-6 production in HS27 cells [5] | EC50 (human IL-17A [6]) | Potency (pM), IL-17-driven IL-6 production in HS27 cells (human IL-17A [7]) | Potency (pM), IL-17-driven IL-6 production in HS27 cells (human IL-17A/F [8]) | Potency (pM), IL-17-driven IL-6 production in HS27 cells [9] | Potency (pM), IL-17 and TNF-induced IL-6 secretion from NIH3T3 cells (rat IL-17A [10]) |
| --- | --- | --- | --- | --- | --- | --- | --- | --- | --- | --- |
| m5C5.hIgG1 (antibody, V domains shown) VH: QVQLQQSGAELVRPGASVKLSCKALGYTFTDYEFHWVKQTPVHGLEWIGVIHPGNGGTAYNQNFRDKATLTADKSSSTAYMELSSLTSEDSGVYYCTRFLTYEGYFDYWGQGTALTVSS VL: NIVMTQTPKFLLVSPGDRVTITCKASQSVSIDVGWFQQKPGQSPKLLIYHASNRYTGVPDRFTGSGYGTDFTFTVNTVQAEDLAVYFCQQDYSSPYTFGGGTKLELKR | 11 pM | 4910 pM |  |  |  |  |  |  |  |  |
| IL17-TN-K7-B6 (antibody, V domains shown, Fully human monoclonal antibody from mRNA display) VH: EVQLVQSGAEVKKPGESLKISCKASGGSFRSYGISWVRQAPGQGLEWMGGITPILGTANYAQKFQGRVTITADESTTTAYMELSGLTSDDTAVYYCAREPNDFWNGYYTTHHFDYWGQGTPVTVSS VL: DVVMTQSPDFQSVTPKEKVTITCRASQNIGSALHWYQQKPDQSPKLLIKYASQSISGVPSRFSGSGSGTDFTLTINGLEAEDAGTYYCHQSTSLPHTFGQGTKLDIKR |  |  | 4.5 nM | 8.1 nM | 18 nM | 0.447 nM |  |  |  |  |
| IL17-TN-L7-C8 (antibody, V domains shown, Fully human monoclonal antibody from mRNA display; also called IL-TN-L7-C8) VH: EVQLVQSGAEVKKPGASVKVSCKASGYTFSDFDIDWVRQATGLGLEWMGWMNPNSGNTGVAPKFRGRVSMTFNTAIRTAYLELSSLRPDDTAVYFCARSSESEGITIGFDNWGQGTLVTVSS VL: SYELTQPPSVSVSPGQTASIPCSGDKLGNRYACWYKQKPGQPPVLVIYQDNKRPSGISERYSGSNYGDTATLTITGTQAMDEADYYCQTWDSTTGSYVFGTGTKVTVLG |  |  | 4.5 nM | 2.6 nM | 18 nM | 0.517 nM |  |  |  |  |
| IL17-B6-15 (antibody, V domains shown, also called pJP245 B6.1 #15VH / pJP246 B6.1 #15Vk) VH: EVQLVQSGAEVKKPGESLKISCKASGGSFSGYGTSWVRQAPGQGLEWMGGITHFFGAVDYAQKFQGRVTITADESTTTAYMELSGLTSDDTAVYYCARDPNEFWNGYYATHDFDYWGQGTTVTVSS VL: EIVLTQSPDFQSVTPKEKVTITCRASQNIGAELHWYQQKPDQSPKLLIKYASHSISGVPSRFSGSGSGTDFTLTINGLEAEDAGTYYCHQTDRLPYSFGPGTKVDIK |  |  |  |  |  | 0.13 nM | 24 pM | 162 pM | 10 pM | 17 pM |
| IL17-B6-16 (antibody, V domains shown, also called pJP247 B6.1 #16VH / pJP248 B6.1 #16Vk) VH: EVQLVQSGAEVKMPGSSLKISCKASGGSFRGYGISWVRQAPGQGLEWMGGITPFFGWADYAQKFQGRVTITADESTTTAYMELSGLTSDDTAVYYCARDPNEFWNGYYDTHHFDYWGQGTTVTVSS VL: EIVLTQSPDFQSVTPKEKVTITCRASQDIGSALHWYQQKPDQSPKLLIKYASHSVSGVPSRFSGSGSGTDFTLTINGLEAEDAGTYYCHQSDILPHTFGPGTKVDIK |  |  |  |  |  | 0.16 nM | 26 pM | 114 pM | 13 pM | 167 pM |
